{"source": "paper PMC2966277", "about": "(Cell, 2010)", "binders": {"B1": {"name": "PRC1-NSΔC (aa 1-486) (domain or fragment, human, UniProt O43663 1-486, looked up)", "chain": "MRRSEVLAEESIVCLQKALNHLREIWELIGIPEDQRLQRTEVVKKHIKELLDMMIAEEESLKERLIKSISVCQKELNTLCSELHVEPFQEEGETTILQLEKDLRTQVELMRKQKKERKQELKLLQEQDQELCEILCMPHYDIDSASVPSLEELNQFRQHVTTLRETKASRREEFVSIKRQIILCMEALDHTPDTSFERDVVCEDEDAFCLSLENIATLQKLLRQLEMQKSQNEAVCEGLRTQIRELWDRLQIPEEEREAVATIMSGSKAKVRKALQLEVDRLEELKMQNMKKVIEAIRVELVQYWDQCFYSQEQRQAFAPFCAEDYTESLLQLHDAEIVRLKNYYEVHKELFEGVQKWEETWRLFLEFERKASDPNRFTNRGGNLLKEEKQRAKLQKMLPKLEEELKARIELWEQEHSKAFMVNGQKFMEYVAEQWEMHRLEKERAKQERQLKNKKQTETEMLYGSAPRTPSKRRGLAPNTPGKAR"}, "B2": {"name": "PRC1-SC (aa 341-620) (domain or fragment, human, UniProt O43663 341-620, looked up)", "chain": "LKNYYEVHKELFEGVQKWEETWRLFLEFERKASDPNRFTNRGGNLLKEEKQRAKLQKMLPKLEEELKARIELWEQEHSKAFMVNGQKFMEYVAEQWEMHRLEKERAKQERQLKNKKQTETEMLYGSAPRTPSKRRGLAPNTPGKARKLNTTTMSNATANSSIRPIFGGTVYHSPVSRLPPSGSKPVAASTCSGKKTPRTGRHGANKENLELNGSILSGGYPGSAPLQRNFSINSVASTYSEFAKDPSLSDSSTVGLQRELSKASKSDATSGILNSTNIQS"}, "B3": {"name": "GFP-PRC1-FL (GFP-tagged full-length PRC1, aa 1-620), O43663 1-620 (natural protein)", "chain": "MRRSEVLAEESIVCLQKALNHLREIWELIGIPEDQRLQRTEVVKKHIKELLDMMIAEEESLKERLIKSISVCQKELNTLCSELHVEPFQEEGETTILQLEKDLRTQVELMRKQKKERKQELKLLQEQDQELCEILCMPHYDIDSASVPSLEELNQFRQHVTTLRETKASRREEFVSIKRQIILCMEALDHTPDTSFERDVVCEDEDAFCLSLENIATLQKLLRQLEMQKSQNEAVCEGLRTQIRELWDRLQIPEEEREAVATIMSGSKAKVRKALQLEVDRLEELKMQNMKKVIEAIRVELVQYWDQCFYSQEQRQAFAPFCAEDYTESLLQLHDAEIVRLKNYYEVHKELFEGVQKWEETWRLFLEFERKASDPNRFTNRGGNLLKEEKQRAKLQKMLPKLEEELKARIELWEQEHSKAFMVNGQKFMEYVAEQWEMHRLEKERAKQERQLKNKKQTETEMLYGSAPRTPSKRRGLAPNTPGKARKLNTTTMSNATANSSIRPIFGGTVYHSPVSRLPPSGSKPVAASTCSGKKTPRTGRHGANKENLELNGSILSGGYPGSAPLQRNFSINSVASTYSEFAKDPSLSDSSTVGLQRELSKASKSDATSGILNSTNIQS"}, "B4": {"name": "PRC1-FL (untagged full-length PRC1), O43663 1-620 (natural protein)", "chain": "B3 chain"}, "B5": {"name": "PRC1-S (aa 341-466) (domain or fragment, human, UniProt O43663 341-466, looked up)", "chain": "LKNYYEVHKELFEGVQKWEETWRLFLEFERKASDPNRFTNRGGNLLKEEKQRAKLQKMLPKLEEELKARIELWEQEHSKAFMVNGQKFMEYVAEQWEMHRLEKERAKQERQLKNKKQTETEMLYGS"}}, "key": {"SEC-MALS": {"molecular_target": "the molecule itself", "experiment": "SEC-MALS"}, "microtubules": {"molecular_target": "microtubules (UniProt Q6B856 1-445)", "experiment": "co-sedimentation"}, "[1]": {"molecular_target": "T1, GFP-PRC1-FL (GFP-tagged full-length PRC1, aa 1-620) (human), O43663", "T1 chain": "B3 chain", "experiment": "single-molecule fluorescence intensity analysis", "conditions": "remark: other sources report otherwise"}, "[2]": {"molecular_target": "T2, PRC1-FL (untagged full-length PRC1) (human), O43663", "T2 chain": "B3 chain", "conditions": "remark: other sources report otherwise"}}, "data": [{"binder": "B1", "values": [{"measurement": "stoichiometry N", "setting": "SEC-MALS", "result": 2}]}, {"binder": "B2", "values": [{"measurement": "Kd", "setting": "microtubules", "result": "600 ± 300", "unit": "nM"}]}, {"binder": "B3", "values": [{"measurement": "stoichiometry N", "setting": "[1]", "result": 2}]}, {"binder": "B4", "values": [{"measurement": "stoichiometry N", "setting": "[2]", "result": 2}]}, {"binder": "B5", "values": [{"measurement": "Kd", "setting": "microtubules", "result": "3300 ± 1800", "unit": "nM"}]}]}
